# Results published in US12077763B2, “RNA-based control of powdery mildew” (Greenlight Biosciences, Inc., priority 2021, dated 2024).
# Key:
# [1] = tested on: E. necator; experiment: Leaf disc assay, dry inoculum (settling tower), decrease in disease severity / hyphal growth (Example 2); settings: decrease in disease severity (hyphal growth) relative to untreated control, value ± SE
# [2] = tested on: Cyp51 transcripts; experiment: Gene specific qRT-PCR of ES43 (Cyp51) transcripts in leaf discs (Example 3); assay type: in vivo, E. necator
# Method: FIG. 3. Gene specific qRT-PCR analysis of ES43 (Cyp51) transcripts at 6-dpi in leaf discs. Two housekeeping genes (GDP1 and TEF1) were used as endogenous references to examine the expression of Cyp51. Gene expression was normalized to the untreated control. Statistical significance at p<0.01, Mann-Whitney U test.
# qRT-PCR was performed to validate the effect of exogenous dsRNA on the expression of selected targeted genes for which activity of dsRNA had been shown by leaf assay (as described in Example 2). Samples were treated with dsRNA, inoculated after 24 hours and six leaf discs per treatment were collected at six-days post inoculation (dpi) for further analysis.
# [3] = tested on: E. necator; experiment: Leaf disc assay, wet inoculum (conidial suspension), disease severity by automated phenotyping (Example 1)
# [4] = tested on: E. necator; experiment: Greenhouse trial, powdery mildew on grapes, AUDPC of disease incidence and severity (Example 4); assay type: in vivo, E. necator in grapes
# Method: A greenhouse trial was performed to evaluate the efficacy of ES43 dsRNA for controlling E. necator in grapes compared with commercial fungicides (Luna Experience/Pristina) and biofungicides (Regalia Biofungicide/Double Nickel).
# Disease incidence was calculated based on the total number of leaves on the plant infected with powdery mildew, out of number of leaves present. Disease severity was calculated based on the percent (%) leaf surface infected overall for each plant. Area under the disease progress curve (AUDPC) was then calculated throughout the entire trial period (FIGS. 5 and 6).
# [5] = tested on: E. necator; experiment: Field trial, natural infestation on Chardonnay grapes, leaf disease incidence (Example 5); assay type: in vivo, E. necator on Chardonnay grapes; settings: FIG. 7
# Method: A field trial was conducted in ACDS Research vineyard (Dundee, New York) with natural disease infestation on grapes. The trial was set up in four rows (180 ft^2) of Chardonnay grapes, with plots consisting of four vines. The trial included 11 treatments (Table 5), each replicated four times. The grower spray program from budbreak through pre-bloom consisted of sulfur, and trial applications were initiated at bloom. Eight to fifteen applications of ES43 (6.25, 25, 50 and 100 g Ai/ha) were compared with Regalia (470 g Ai/ha) and DoubleNickel (10 billion Cfu/ml), Pristine (333 g Ai/ha) Rally 40 WSP (140 g Ai/ha) and Luna Experience (250 g Ai/ha). Disease incidence, total number of leaves infected out of number of leaves present on several branches, Weekly assessments was performed 1 day before ES43 applications. Data was collected one week after the last application for all treatments at the close of the experiment.
# Disease incidence was calculated based on number of leaves infected with powdery mildew out of 20 total leaves.
molecule,measurement,setting,value
"ES43: 497 bp Cyp51-dsRNA, trigger SEQ ID NO 108; gene target Cytochrome P450 (nucleic acid) DNA: TCTTACCATGAAGCGTTCCATTCCTATGTAACAATAATACAAAATGAAGTAGAGGCATATATAAACAATTGCGTTAGCTTTCAGGGTGAGAGTGGCACAGTAAACATCTCAAAAGTTATGGCGGAAATCACTATATATACTGCTTCACATGCCTTACAAGGAGAAGAGGTCCGTGAGAATTTTGACTCATCTTTTGCCGCTCTTTATCATGATCTTGATATGGGATTTACACCGATCAACTTTACATTTTACTGGGCACCTCTACCTTGGAATCGTGCTCGTGATCATGCCCAAAGAACTGTTGCTAGGACTTATATGAATATAATCCAAGCTCGTAGAGAAGAGAAAAGAAGCGGTGAGAATAAGCATGATATAATGTGGGAGTTGATGCGTTCCACTTATAAAGACGGGACTCCGGTACCTGATCGAGAGATAGCGCATATGATGATAGCCCTTCTGATGGCTGGACAACACTCTTCGTCATCCACGAGCTCATG",% decrease =/− SE TP1,[1]; time point 1 (untreated control hyphal growth ≥50%),41 ± 3%
same,% decrease =/− SE TP2,[1]; time point 2,28 ± 5%
same,reduction of relative amounts of ES43 (Cyp51) transcripts,"[2]; 6-dpi, compared to untreated control, FIG. 3",up to 70%
same,gene silencing in E. necator by sprayed dsRNA,"[2]; qRT-PCR, six-days post inoculation",Induced Gene Silencing
same,"LSMeans difference (Dunnett's), disease severity","[3]; Run1, ES43 10 ppm vs negative control GS4 25 ppm",−61.5000
same,"LSMeans difference (Dunnett's), disease severity","[3]; Run1, ES43 25 ppm vs negative control GS4 25 ppm",−49.1667
same,"LSMeans difference (Dunnett's), disease severity","[3]; Run 2, ES43 10 ppm vs negative control GS4 25 ppm",10.0000
same,"LSMeans difference (Dunnett's), disease severity","[3]; Run 2, ES43 25 ppm vs negative control GS4 25 ppm",−26.3750
same,"LSMeans difference (Dunnett's), disease severity","[3]; Run 3, ES43 10 ppm vs negative control GS145 25 ppm",−24.0000
same,"LSMeans difference (Dunnett's), disease severity","[3]; Run 3, ES43 25 ppm vs negative control GS145 25 ppm",−17.0625
same,powdery mildew development on leaf disks,"[3]; nine-dpi, 10 and 25 ppm, compared to untreated and non-dsRNA targets",significant decrease of powdery mildew development
same,fungal growth determined by disease severity (FIG. 1),"[3]; three individual runs combined, 10 and 25 ppm, vs controls GS145 or GS4 (p<0.01)",Significant decrease of fungal growth
same,AUDPC based on disease severity vs. untreated control,[4]; FIG. 6,significantly decreased severity
same,"reduction in disease incidence, twice per week vs once per week","[4]; twice per week applications at the same rate, numerically",greater reduction in disease incidence compared to once per week applications at the same rate
same,"AUDPC based on disease severity, compared with commercial fungicide and biofungicides","[4]; weekly and twice-per-week spray interval, FIG. 6",performed similarly to commercial fungicide and biofungicides
same,AUDPC based on disease incidence,"[4]; weekly spray interval, all rates (6.25-100 g ai/ha), FIG. 5",reduced powdery mildew AUDPC incidence with all rates similar to or better than the biofungicide standard
same,leaf disease incidence,"[5]; 6.25 g Ai/ha, 7-day and twice a week (3/4-day), 57 days after initial treatments",significantly decreased disease incidence
same,leaf disease incidence,"[5]; 50 g Ai/ha, compared to untreated control",decreased incidence compared to untreated control
